PMC12101500, “Mechanism of D-type cyclin recognition by the AMBRA1 E3 ligase receptor” (Science Advances, 2025)
Where no end group is shown, it is not given here. [ ]: non-standard residue; d: D form. pT = C[C@@H](OP(=O)(O)O)[C@H](N)C(=O)O

Columns and labels:
[1] = target: DDB1-AMBRA1^WD40 complex (human) (UniProt Q9C0C7); experiment: ITC; peptide (100 μM) titrated into AMBRA1^WD40-DDB1 complex (10 μM); 25°C; 50 mM Hepes pH 7.4, 200 mM NaCl, 2 mM MgCl2, 1 mM TCEP; single-site binding model
DDB1-AMBRA1 WD40 = DDB1-AMBRA1 WD40 (Homo sapiens, UniProt Q16531); experiment: ITC
[2] = target: T1, TSF–cyclin D1 (full-length) (human, UniProt P24385 1-295, phosphothreonine at 286 (found in the reconstituted complex by Western blotting and MS)); experiment: cryo-EM structure; DDB1–AMBRA1^WD40–cyclin D1–CDK4EE complex co-expressed in Expi293F and purified (MBP beads, TEV, Strep-tactin, Superdex 200); 0.3 mg/ml; 3.55 Å; settings: both partners purified
T1 construct: cyclin D1, human; also called Twin-Strep-FLAG–cyclin D1; source: Expi293F, co-transfected; in lysate (pull-downs) and purified in complexes (MBP or GST beads, TEV digestion, Strep-tactin, Superdex 200); not shown: Twin-Strep-FLAG (TSF), N-terminal, kept
T1 sequence (P24385 whole entry): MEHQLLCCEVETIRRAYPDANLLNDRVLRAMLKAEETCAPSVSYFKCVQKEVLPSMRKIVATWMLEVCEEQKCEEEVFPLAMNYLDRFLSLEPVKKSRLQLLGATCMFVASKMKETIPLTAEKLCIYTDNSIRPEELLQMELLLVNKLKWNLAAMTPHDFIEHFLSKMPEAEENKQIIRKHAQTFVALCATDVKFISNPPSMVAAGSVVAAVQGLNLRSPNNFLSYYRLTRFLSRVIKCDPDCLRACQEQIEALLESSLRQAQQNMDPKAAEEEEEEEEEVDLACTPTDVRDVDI

With “T286-phosphorylated cyclin D1 peptide (residues 284 to 295)” the Kd [1] was 210 nM.

B1: cyclin D1 284-295 (peptide)
chain: Ac-AC[pT]PTDVRDVDI
B1 gave a Kd (DDB1-AMBRA1 WD40) of ~200 nM.

B2: AMBRA1^WD40 (residues M1 to N204 directly fused to S853 to G1044), MBP removed (domain or fragment, human, UniProt Q9C0C7 1-204, looked up)
chain: MKVVPEKNAVRILWGRERGARAMGAQRLLQELVEDKTRWMKWEGKRVELPDSPRSTFLLAFSPDRTLLASTHVNHNIYITEVKTGKCVHSLIGHRRTPWCVTFHPTISGLIASGCLDGEVRIWDLHGGSESWFTDSNNAIASLAFHPTAQLLLIATANEIHFWDWSRREPFAVVKTASEMERVRLVRFDPLGHYLLTAIVNPSNSNIANTTYRLQWWDFTKFDLPEISNASVNVLVQNCKIYNDASCDISADGQLLAAFIPSSQRGFPDEGILAVYSLAPHNLGEMLYTKRFGPNAISVSLSPMGRYVMVGLASRRILLHPSTEHMVAQVFRLQQAHGGETSMRRVFNVLYPMPADQRRHVSINSARWLPEPGLGLAYGTNKGDLVICRPEALNSG
notes: AMBRA1, human, residues M1 to N204, directly fused to S853; AMBRA1, human, residues S853 to G1044; Same construct as m5, after TEV digestion; the gene was codon optimized; also called AMBRA1 WD40 domain; AMBRA1^WD40 WT; source: Expi293F, co-expressed, purified in complex (MBP beads, TEV digestion, Strep-tactin and/or Superdex 200); not shown: MBP, N-terminal, cleaved
B2: binds [2].
